Measurements reported in patent US8088892B2, “Inhibitors of proteins from the Rho-GEF family” (Centre National de la Recherche Scientifique (C.N.R.S.), priority 2002, dated 2012).
“Also recorded” adds a separate entry of the source.

B1: TRIAPα: aptamer of 154 amino acids: variable region of 42 amino acids inserted into the thioredoxin protein; tested as GST fusion (protein)
chain: MSDKIIHLTDDSFDTDVLKADGAILVDFWAEWCGPAREGADGAICGYNLATLVMLGPSERVFCPLCEPCSSDIYELMGPCKMIAPILDEIADEYQGKLTVAKLNIDQNPGTAPKYGIRGIPTLLLFKNGEVASATKVGALSKGQLKEFLDANLA

Experiments:
[1] = test system: NGF-differentiated PC12 cells; assay: Serum-induced neurite retraction; format: cell-based; settings: 0 to 15 min after serum addition
Method: FIG. 6A represents histograms quantifying the effects of GFP-TRIPα or GFP on serum induced neurite retraction in NGF-differentiated PC12 cells. The X-axis represents the time after serum addition in minutes and the Y-axis represents the percentage of transfected cells with neurites.
Cells were transfected with GFP-TRIPα (white bars) or GFP (black bars) and differentiated with NGF (50 ng/ml). Serum was added and neurite retraction was followed for 15 minutes. The number of transfected cells with neurites was counted from at least 200 cells in 3 independent experiments.
Since Trio is an activator of RhoA and is expressed in PC12 cells (Estrach et al., 2002), it was analysed whether TRIPα could interfere with serum-induced neurite retraction in NGF-differentiated PC12 cells. […] After NGF treatment, cells were subjected to serum addition (DMEM medium supplemented with 10% HS and 5% fetal calf serum (FCS)) from 0 to 15 min (FIG. 6A). Cells were then fixed and permeabilised (Estrach et al., 2002) and observed as described in FIG. 5. Cells with neurites are defined as cells with neurites of at least twice the length of the cell body.

[2] = target: T1, Kalirin GEFD2 (KalGEFD2) (Rattus norvegicus, UniProt P97924); assay: In vitro GEF assay on RhoA; format: biochemical; design: key to in vitro GEF assay (inhibition): +++^2 and +^2 represent respectively a full and a partial (see FIG. 3) inhibitory effect; +++^2 and +^2 represent respectively a full and a partial (see FIG. 3) inhibitory effect; −−^2 represents a lack of inhibitory effect; settings: for Effect on Kalirin GEFD2 exchange activity on RhoA: 20-fold molar excess, KalGEFD2 1.7 μM
T1 construct: KalGEFD2, a.a; 1850-2190, 65% identity with TrioGEFD2; made in house
Method: To test the specificity of TRIAPα inhibition in vitro, exchange experiments were performed either on RhoA with different RhoA-specific GEFs: Trio GEFD2 (0.4 μM), Kalirin GEFD2 (KalGEFD2, 1.7 μM), p63RhoGEF (Souchet et al., 2002) (0.4 μM) and Lbc (amino acids 172-598; Zheng et al., 1995) (0.4 μM), or on RhoG, with the RhoG-specific GEF domain of Trio (TrioGEFD1, 0.1 μM). Exchange assays were performed with the recombinant GEFs as described in FIG. 2A. Different concentrations of RhoGEFs were used to yield a similar nucleotide exchange efficiency. For each exchange factor, three independent experiments were done in absence (black bar) or in the presence (grey bar) of a 20-fold molar excess of TRIAPα.
An in vitro guanine nucleotide exchange (GEF) assay was used to test whether the TrioGEFD2-binding aptamers could inhibit the catalytic activity of TrioGEFD2 towards RhoA. For this purpose, the aptamers TRIAPα, TRIAPβ and TRIAPγ (including the Trx gene) were excised from pEG202 as EcoRI/NotI fragments and cloned into pGEX4T1 EcoRI/NotI. The aptamers were then expressed and purified from bacteria as GST fusion proteins, using standard procedures (Smith and Johnson, 1988). GTPase-GST fusion proteins were prepared, loaded with [^3H]GDP and the guanine nucleotide release assays were performed as described (Debant et al., 1996), using recombinant GST-TrioGEFD2 (a.a. 1848-2298), TrioDH2 (a.a. 1848-2096). For each point, 0.3 μM GTPase was mixed with or without 0.4 μM GEF in presence of non-labeled GTP, and the reaction mix was filtered after 0 min and 15 mm reaction at 25° C. The catalytic activity of TrioGEFD2 was thus measured by the decrease of the GTPase-associated radioactivity. The results are expressed as the ratio “exchange after 15 min over exchange after 0 min” (% bound [^3H]GDP-RhoA). To measure the effect of the aptamers on the exchange activity, a 20-fold molar excess of GST-TRIAPs was pre-incubated with GEFD2 (or GEFD1) for 30 min on ice before the exchange assay was carried out. For each experiment, data were obtained in triplicate.
The effect of GST-TRIAPα on other Rho-GEFs that display in vitro exchange activity on RhoA was next tested to investigate whether TRIAPα inhibition was specific of TrioGEFD2. The exchange activities of the RhoGEF Lbc (a.a. 1-424, FIG. 3)(Zheng et al., 1995) and Dbl (a.a. 495-826, data not shown) were not affected by GST-TRIAPα. The effect of GST-TRIAPα on the catalytic activity of RhoGEFs that display a high sequence similarity with TrioGEFD2 was then tested: the recently identified RhoA-specific p63RhoGEF (Souchet et al., 2002) (a.a. 149-374, 71.5% identity with TrioGEFD2, 0.4 μM) and the second Rho-GEF domain of the Trio family member Kalirin (KalGEFD2, a.a. 1850-2190, 65% identity with TrioGEFD2, 1.7 μM). Different concentrations of RhoGEFs were used to yield similar nucleotide exchange […]. For each exchange factor, three independent experiments were done in absence or in the presence of a 20-fold molar excess of GST-TRIAPα. […] Thus, the in vitro inhibitory activity of TRIAPα was selective for TrioGEFD2 (see table I for summary of the tested RhoGEFs).

[3] = test system: NGF-differentiated PC12 cells; assay: LPA-induced neurite retraction; format: cell-based
Method: FIG. 6B represents histograms quantifying the effects of GFP-TRIPα or GFP on LPA (lysophosphatidic acid) induced neurite retraction in NGF-differentiated PC12 cells. The X-axis represents the time after LPA addition in minutes and the Y-axis represents the percentage of transfected cells with neurites.
Cells were transfected with GFP-TRIPα (white bars) or GFP (black bars) and differentiated with NGF (50 ng/ml). 10 μM LPA was added and neurite retraction was followed for 15 minutes. The number of transfected cells with neurites was counted from at least 200 cells in 3 independent experiments.
Among the serum components known to trigger neurite retraction and cell rounding in neuronal cells is lysophosphatidic acid (LPA) (Moolenaar et al., 1997). Thus, a similar neurite retraction assay was performed, except that, instead of the serum-containing medium, LPA (10 μM, Sigma) was added to TRIPα transfected and differentiated PC12 cells (FIG. 6B).

Molecule	Effect on serum-induced neurite retraction [1]	Effect on Kalirin GEFD2 exchange activity on RhoA [2]	Effect on LPA-induced neurite retraction ([3]; 10 μM LPA, 15 min)	percentage of transfected cells with neurites after LPA addition ([3]; 15 min after 10 μM LPA)	Effect on Kalirin GEFD2 exchange activity on RhoA ([2]; listed as GST-TRIAPα)	in vitro GEF assay (inhibition) ([2]; RhoGEF KalirinDH2PH2)
AREGADGAICGYNLATLVMLGPSERVFCPLCEPCSSDIYELM [TRIPα, 42-amino acid peptide corresponding to the variable region of TRIAPα]	prevents serum- and LPA-induced neurite retraction; also recorded: significantly inhibited this retraction	slightly inhibited	prevents serum- and LPA-induced neurite retraction; also recorded: also inhibited LPA-mediated neurite collapse	more than 37%	–	–
B1	–	weakly inhibits	–	–	only weakly inhibited	+^2
